Laboratory results reported in patent US20210261685A1 (Alector, published 2021).
Substitutions are numbered along the chain they refer to.

T1: human Axl ECD construct (Full Axl) with linker+His+Avi tag (human, UniProt P30530 26-451)
T1 construct: tested as Expi293 supernatant; also called ECD domain of human Axl
T1 sequence: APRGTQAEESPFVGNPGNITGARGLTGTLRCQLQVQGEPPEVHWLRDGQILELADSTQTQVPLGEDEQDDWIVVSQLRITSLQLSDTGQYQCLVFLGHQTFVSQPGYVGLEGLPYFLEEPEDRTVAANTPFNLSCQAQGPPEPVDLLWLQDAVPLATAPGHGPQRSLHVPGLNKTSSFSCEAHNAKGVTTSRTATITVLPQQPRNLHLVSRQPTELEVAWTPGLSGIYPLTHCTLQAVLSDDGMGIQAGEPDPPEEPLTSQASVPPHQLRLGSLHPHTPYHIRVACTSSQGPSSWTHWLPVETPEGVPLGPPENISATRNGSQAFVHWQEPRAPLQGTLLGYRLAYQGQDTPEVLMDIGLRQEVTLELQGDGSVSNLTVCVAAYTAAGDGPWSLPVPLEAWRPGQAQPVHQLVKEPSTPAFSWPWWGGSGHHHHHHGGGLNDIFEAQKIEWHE

T2: human MerTK endogenously expressed on cells (SK-MEL-5 cells; human macrophages) (human, UniProt Q12866 21-999)
T2 construct: also called MerTK on SK-MEL-5
T2 sequence: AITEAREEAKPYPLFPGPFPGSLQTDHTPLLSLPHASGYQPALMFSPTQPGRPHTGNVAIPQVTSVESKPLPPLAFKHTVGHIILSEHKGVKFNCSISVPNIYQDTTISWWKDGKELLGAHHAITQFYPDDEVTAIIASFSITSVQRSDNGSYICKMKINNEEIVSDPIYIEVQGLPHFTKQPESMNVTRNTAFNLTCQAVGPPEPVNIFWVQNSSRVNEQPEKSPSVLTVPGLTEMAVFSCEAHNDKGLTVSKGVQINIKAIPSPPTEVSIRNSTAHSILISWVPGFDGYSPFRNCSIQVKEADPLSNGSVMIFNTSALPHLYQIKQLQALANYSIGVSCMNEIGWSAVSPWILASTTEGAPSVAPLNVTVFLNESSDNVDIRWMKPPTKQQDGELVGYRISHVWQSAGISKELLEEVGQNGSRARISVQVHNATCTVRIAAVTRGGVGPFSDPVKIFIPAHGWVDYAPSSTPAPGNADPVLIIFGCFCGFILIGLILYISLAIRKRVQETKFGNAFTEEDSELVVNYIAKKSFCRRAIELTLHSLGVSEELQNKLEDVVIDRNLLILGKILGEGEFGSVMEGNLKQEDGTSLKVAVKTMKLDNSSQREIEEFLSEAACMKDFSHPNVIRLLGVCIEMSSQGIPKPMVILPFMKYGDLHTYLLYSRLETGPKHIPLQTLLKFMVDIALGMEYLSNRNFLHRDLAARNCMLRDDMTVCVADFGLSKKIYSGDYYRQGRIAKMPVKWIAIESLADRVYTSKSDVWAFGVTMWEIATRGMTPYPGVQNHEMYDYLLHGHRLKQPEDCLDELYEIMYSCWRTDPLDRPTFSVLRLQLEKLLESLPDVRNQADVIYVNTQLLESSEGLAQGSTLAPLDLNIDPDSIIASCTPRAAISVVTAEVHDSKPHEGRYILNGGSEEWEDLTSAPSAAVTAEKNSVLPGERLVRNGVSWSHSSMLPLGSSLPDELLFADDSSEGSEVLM

B1: MTK-16 (antibody, human IgG1, V domains shown)
VH: LIQLVQSGPELKKPGETVKISCKASGYTFTNHGMNWVKQDPGKGLKWMGWINTYTGEPTYADDFKGRFVFSMETSASAAFLQINNLKNEDTATYFCARKGVTAARYFDYWGQGTTLTVSS
VL: DIVMTQSPKFMSTSVGDRVSITCKASQNVRTAVAWYKKKPGQSPKALINLASNRHTGVPDRFTGSGSGTDFTLTISNVQSEDLADYFCLQHWNYPLTFGGGTKLEIK
B2: MTK-30 (antibody, human IgG1, V domains shown)
VH: QVQLQQPGTELVRPGASVKLSCKASGYTFTSYWMHWVKQRPGQGLEWIGNLNPNNGGTYYNEKFKSKATLTVDKSSSTAYMQLSSLTSEDSAVYYCARQILLYFDYWGQGTTLTVSS
VL: DVLMTQTPLSLPVSLGDQASISCRSSQSIVHSNGDTYLEWYLQKPGQSPKLLIYKVSNRFSGVPDRFSGSGSGTDFTLKISRVEAEDLGVYYCFQGSHVPWTFGGGTKLEIK
B3: MTK-10 (antibody, human IgG1, V domains shown)
VH: QVTLKESGPGILQPSQTLSLTCSFSGFSLTTSGMGVGWIRQPSGKGLEWLAHIWSDDDKRSNPALKSRLTISQDSSTNQVFLKIASVDTADSATYYCSHLTPVREFAYWGPGTLVTVSE
VL: DIQMTQTTSSLSASLGDRVTISCSASQGISNYLNWFQQKPDGTVKLLIYYTSRLHSGVPSRFSGSGSGTDFSLTISNLEPEDIATYYCQQYTKLPYTFGGGTKLEIK
B4: MTK-29 (antibody, human IgG1, V domains shown)
VH: QIQLVQSGPELKKPGETVKISCKSSGFTFTTYGMSWVKQAPGKGLKWMGWINTYSGVPTYTDDFKGRFAFSLETSASTASLQINNLKNEDTATYFCARYTNYGYFDYWGQGTTLTVSS
VL: QIVLSQSPAILSASPGEKVTMTCRATSSVGYMHWYQQKPGSSPKPWIYATSNLASGVPARFSGSGSGTSYSLTISRVEAEHAATYYCQQWGSNPFTFGSGTKLEIK
B5: MTK-06 (antibody, human IgG1, V domains shown)
VH: QIQLVQSGPELKKPGETVKISCKASGYTFTNYGMNWVKQAPGKGLKWMGWINTNTGEPTYAEEFKGRFAFSLETSASTAYLQINNLKNEDTATYFCARYYNYWYFDVWGAGTTVTVSS
VL: B4 VL with T26S, G30S, H81D, G91S, N93K, F95P, S99G
B6: MTK-15 (antibody, human IgG1, V domains shown)
VH: QIQLVQSGPELKKPGETVKISCKASGYTFTNYGVHWVKQAPGKGLKWMGWINTYTGEPTYADDFKGRFAFSLETSASTAYLQINNLKNEDMATYFCARGNRYAYMDYWGQGTSVTVSS
VL: B4 VL with T26S, G30S, P39S, H81D, G91S, F95R, S99G
B7: MTK-33 (antibody, human IgG1, V domains shown)
VH: QVQLQQPGPELVRPGTSVKLSCKASGYTFTSYWMHWIKQRPGQGLEWIGVIDPSDNYINYNQKFKGKATLTVDTSSSTAYLQLSSLTSEDSAVYYCAREAGTRGYFDYWGQGTTLTVSS
VL: SIVMTQTPKFLLVSAGDRVIITCKASQSVSNTVAWYQQKPGQSPKLLIYYASNRYTGVPDRFTGSGYGTDFTFTISTVQAEDLAVYFCQQDYRSPFTFGSGTQLEMK
B8: MTK-21 (antibody, human IgG1, V domains shown)
VH: QIQLVQSGPELKKPGETVKISCKASGYTFTNFGMTWVRQAPGMDLKWMGWINTYTGEPKYADDFKGRFALSLETSASTAYLQITNFKNEDTATYFCARGGGRLGLRPLDYWGQGTTLTVSS
VL: DIQMTQTTSSLSASLGDRVTISCRASQDINNYLNWYQQKPDGTVKLLIYYTSSLHSGVPSRFSGSGSGTDYSLTITNLEQEDIATYFCQQGNTLPWTFGGGTRLEIK
B9: MTK-13 (antibody, human IgG1, V domains shown)
VH: DVQLQESGPGLVKPSQSLSLTCSVTGYSITSGYYWNWIRQFPGNKLEWMGNIDYDGSNKYNPSLKNRISITRDTSKNHFFLKLNSVTPEDTATYFCARDGGNYRSFAYWGQGTLVTVSA
VL: QIVLTQSPPIMSASPGEKVTITCSASSSVSYMYWFQQKPGTSPKLWIYSTFNLASGVPARFSGSGSGTSYSLTISRMEAEDVATYYCQQRSSYPFTFGSGTKLEIK

Target: T1, human Axl ECD construct (Full Axl) with …
Assay: SPR, Carterra LSA, antibody immobilised, construct supernatant injected
Protocol: Binding of anti-MerTK antibodies of the present disclosure to these domain-swapped chimera or deletion mutants (prepared as described above) was tested by Surface Plasmon Resonance (SPR) using Carterra LSA. Purified anti-MerTK antibodies were immobilized in duplicate on a HC30M chip (Carterra) by amine coupling, following the manufacturer's instructions (described previously). Supernatants containing the constructs were diluted 1:1 with running buffer containing 0.5 mg/mL BSA (HBS-TE, Carterra) and injected over the immobilized antibodies. The surface was regenerated with 10 mM Glycine pH2.0 after each construct injection. Sensorgrams were analyzed using Carterra Epitope software to identify patterns of construct binding. Loss of binding to MerTK constructs with domains deleted or swapped in from Axl and/or gain of binding to Axl constructs with MerTK domains swapped in were evaluated. Data from these studies was used to construct a domain binding map for anti-MerTK antibodies and their binding to various domains of human MerTK.

| binding result | Binder |
| --- | --- |
| no binding | B1 |
| no binding | B2 |
| no binding | B3 |
| no binding | B4 |
| no binding | B5 |
| no binding | B6 |
| no binding | B7 |
| no binding | B8 |

Target: T2, human MerTK endogenously expressed on …
Assay: flow cytometry on SK-MEL-5 cells (endogenous human MerTK), APC anti-human kappa detection, MFI
Protocol: To determine whether recombinant anti-human MerTK antibodies of the present disclosure bind to human MerTK endogenously expressed on SK-MEL-5 cells and to CHO cells overexpressing mouse MerTK (CHO-muMerTK OE cells), the following experiments were performed. SK-MEL-5 cells and CHO-muMerTK OE cells were plated at 40,000 cells/well. Anti-MerTK antibodies were titrated to a final concentration range of between 66.6 nM to 4 pM and then added to the cells. After 30 min on ice, cells were washed and then stained with APC-conjugated mouse anti-human Kappa antibody (Southern Biotech Cat #9230-11, Birmingham, Ala.) and a viability die (Life Technologies) in the presence of Fc block solution on ice for 30 minutes, and then washed twice with cold FACS buffer (2% FBS in PBS). Cells were fixed with 4% paraformaldehyde in PBS. Stained cells were acquired on a BD FACS Canto II cytometer and the mean fluorescence intensity (MFI) was calculated with FlowJo software and K value was calculated with Prism software. […] A lower Kd value reflects higher binding of antibody to cells.

| EC50 (read off the curve) | Binder |
| --- | --- |
| ~2 nM | B1 |
| ~0.3 nM | B3 |
| ~0.6 nM | B9 |
| ~0.2 nM | B5 |
| ~0.2 nM | B6 |
